This experiment concerns the target TF-mCCP1 (maize (inbred line B73)).

TF-mCCP1 (maize (inbred line B73)), sequence (Q10716 137-371): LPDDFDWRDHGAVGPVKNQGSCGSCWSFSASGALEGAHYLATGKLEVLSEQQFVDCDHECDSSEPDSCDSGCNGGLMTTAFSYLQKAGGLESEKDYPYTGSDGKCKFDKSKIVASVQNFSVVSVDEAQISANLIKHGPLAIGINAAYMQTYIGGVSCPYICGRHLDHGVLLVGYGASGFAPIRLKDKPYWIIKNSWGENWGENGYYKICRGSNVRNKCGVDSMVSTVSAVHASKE

In the case of GST-NIa-Pro (enzyme), the proteolytic activity of recombinant mCCP1 (TF tag removed) on a fluorescein-labeled casein substrate after pre-treatment with 0.5 μM GST-NIa-Pro, against GST was found to be 72 % decrease.

Source of the values: PMC10965072.
